{
  "source": "patent US20210139602A1",
  "about": "(MEDABOME, published 2021)",
  "molecular_target": "T1, rPODXL-v2-Del-Fc fusion protein (human, UniProt O00592-2 23-429, highly glycosylated)",
  "T1 construct": "extracellular domain; In-frame fusion of the ECD and human IgG1 Fc, expressed in CHO-K1; The two deletions are written as substitutions to '-'; not shown: human IgG1 Fc from the pFUSE-hIgG1-Fc1 expression vector (InvivoGen)",
  "T1 sequence (looked up)": "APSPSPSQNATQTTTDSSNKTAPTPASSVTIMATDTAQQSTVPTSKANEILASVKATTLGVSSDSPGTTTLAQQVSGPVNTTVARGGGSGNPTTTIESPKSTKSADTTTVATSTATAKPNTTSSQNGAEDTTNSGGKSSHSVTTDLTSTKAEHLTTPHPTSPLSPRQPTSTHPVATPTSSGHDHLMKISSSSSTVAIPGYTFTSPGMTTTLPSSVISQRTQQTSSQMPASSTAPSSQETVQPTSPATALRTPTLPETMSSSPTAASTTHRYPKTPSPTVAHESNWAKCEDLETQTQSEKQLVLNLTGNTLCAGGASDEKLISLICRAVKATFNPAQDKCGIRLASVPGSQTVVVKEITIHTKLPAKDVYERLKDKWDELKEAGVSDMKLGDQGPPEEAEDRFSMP",
  "test": "BLI (Octet QKe), mAb captured on anti-mouse IgG Fc (AMC) biosensors, antigen in 1:2 serial dilutions",
  "method": "The Octet® QKe System (Molecular Devices, San Jose, Calif.) was used to determine the binding affinities between MAI1738 mAb and the extracellular domains of PODXL-v2 and PODXL-v2-Del. The MAI1738 mAb was immobilized to the Anti-Mouse IgG Fc Capture (AMC) biosensors, followed by loading of the antigen, rPODXL-v2-Fc or rPODXL-v2-Del-Fc, at 1:2 serial dilutions for 5 minutes. The assay was repeated multiple times to determine the average range of the affinity between MAI1738 and rPODXL-v2-Fc or rPODXL-v2-Del-Fc.",
  "data": [
    {"binder": "MAI1738 mAb (antibody, V domains shown, Mouse monoclonal antibody from a hybridoma (A/J mice); it is detected with anti-mouse IgG-Fc; also called anti-PODXL-v2 monoclonal antibody; second subclone of MS17-38) VH: EVKLVESGGGLVKPGGSLKVSCAASGFTFSTYTMSWVRQTPEKRLEWVATISGGVIYTYYPDSVKGRFTISRDDAKNTLYLQMSSLRSEDTALYYCARHYSNYEGQGMDSWGQGTSVTVSS VL: DIVLTQSPVTLSVTPGDSVSLSCRASQSINNNLHWYQQKSHESPRLLIKYASQSISGIPPRFSGSRSGTDFTLSINTVETEDFGVYFCQQSNSWPLTFGAGTKLELKR", "values": [
      {"measurement": "Kd", "result": 1.58, "unit": "nM"}
    ]}
  ]
}
